Target: Flag-HsPRMT5 (UniProt O14744)
Experiment: biotinylated peptide pull-down on streptavidin beads
Conditions: reference: unmodified H4 peptide; sites S1

histone H4 1-20 (from UniProt P62805) H4 S1ph peptide
binding against the reference: lost

From article PMC3581573
